Experimental data: patent US20060211003

System: putative Thermus thermophilus Pol III ε-subunit

Substance: Thermus thermophilus DNA Pol III α-subunit (DnaE)
- 3′→5′ exonuclease activity: This interaction stimulates the 3′→5′ exonuclease activity 5 fold
